Laboratory results as given in the supplement of paper PMC9170038.

Tested on: MS2 coat protein
Experiment: apparent KD of MS2 coat protein; designed switch direction (-1 OFF switch, 1 ON switch): -1; higher = weaker reporter binding
Procedure, shortened: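 The reported apparent KD is a per-design median over clusters, from curve fits of normalised cluster fluorescence. Protein titrations used SNAP-549-labelled MS2 coat protein, doubled from 0.7 or 1.5 nM to 3 µM, in Tris-HCl pH 7.5 buffer with KCl, MgCl2, BSA, DTT, tRNA and Tween-20, with no input, 200 uM small-molecule ligand, or an oligonucleotide input. The RNA switches were transcribed on Illumina chips by stalled E. coli RNA polymerase.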

[1] = Eterna round: R95, input ligand: microRNA oligo, concentration not stated
[2] = input ligand: microRNA oligo, concentration not stated
[3] = Eterna round: R95, input ligand: FMN 200 uM
[4] = Eterna round: R95, input ligand: none

| Sequence | apparent KD of MS2 coat protein (input ligand: FMN 200 uM) [nM] | apparent KD of MS2 coat protein (input ligand: none) [nM] | apparent KD of MS2 coat protein [1] [nM] | apparent KD of MS2 coat protein [2] [nM] | apparent KD of MS2 coat protein [3] [nM] | apparent KD of MS2 coat protein [4] [nM] |
| --- | --- | --- | --- | --- | --- | --- |
| GCAAGCUUUAUCACUAUGAACAUGAGGAUCACCCAUGUAUAAGGUAUUACUUUUGGGCCCUUUAGUGCUCGUCUUAU [JR_STOV1_Sub032] (Eterna round: R97, puzzle: Sensor, turn-off variant 1) | 29.8 | 29.3 |  |  |  |  |
| GUGACACAUGAGGAUCACCCAUGUGAGGAUAUAUCCGACUAUGAAAGGGUGUAGCAGGAUAGAAGGUACUGGCG [Eternabot (L2) Solution 54] (Eterna round: R97, puzzle: Exclusion 1) | 83.1 | 104 |  |  |  |  |
| CUUCGUAUAGAGGAUAUAGGUUACUACGGUAUCCUAGAAGGCUGUACAUGAGGAUCACCCAUGUACUUCAGAUC [Exclusion 6 - B - 13:d] (puzzle: Exclusion 6) |  |  | 12.2 |  |  |  |
| GGCCUCGCGGUCAGGAUAUAUUGCUGUAAUCAGUGGUAGAAGGGACAUGAGGAUCACCCAUGUACCUAGGACAU [BmEX4 C.20] (Eterna round: R97, puzzle: Brourd's mod of Exclusion 4) | 33.4 | 18.9 |  |  |  |  |
| UUUAGUUUAGGAUAUGUAGACAUUAACAUGAGGAUCACCCAUGUAGAUCCUGAAUUGGCUACAGAAGGAAGCAUUU [Mod of Brourd 11 - Jieux - Exclusion 5] (Eterna round: R97, puzzle: Exclusion 5) | 168 | 354 |  |  |  |  |
| UAGCAGAGAGGAUAUACAUUCAUCACCCGCGCAUCAUGCGCACAUGAGGAUCACCCAUGUAGAAGGCUCGUGCC [EX2 C.27] (Eterna round: R97, puzzle: Exclusion 2) | 74.3 | 28.2 |  |  |  |  |
| GCACCACGAGGAUAUACAUGAGGAUCACCCAUGUGAUCAGCAGUCCUCGGACUGCAAUGUAGAAGGCGUGGUGC [E3/1-A1] (Eterna round: R97, puzzle: Exclusion 3) | 24.3 | 776 |  |  |  |  |
| UAUUAGUAAGGAUAUCCUUGCAUGGACGAAAGUCCAUGCAAGGAGAAGGUACAUGAGGAUCACCCAUGUUUAUU [Mod of Fisker 15 - Jieux - Exclusion 4] (Eterna round: R97, puzzle: Exclusion 4) | 18 | 17.4 |  |  |  |  |
| GCUGGUGUGCAGGAUAUUUAAUUGCAAAUAAAUAAAGAAGGGCAUACAUGAGGAUCACCCAUGUCGUCGUUGCG [Eternabot (L1) Solution 98] (Eterna round: R97, puzzle: Exclusion 6) | 39.2 | 32.7 |  |  |  |  |
| ACCUAACAUGAGGAUCACCCAUGUGAGGAUAUGUACAUCGGCUCGCGAAAGUGACCGAACAGAAGGUACAUGGU [EX1 A.26] (Eterna round: R97, puzzle: Exclusion 1) | 17.8 | 19.1 |  |  |  |  |
| CAAAGACCGGCAGGAUAUUGACCCAGAACAUGAGGAUCACCCAUGUCAACAAGGUUGGACCAGGGCGAGAAGGGCCACGCCAAA [Eternabot solution 22] (Eterna round: R96, puzzle: Exclusion NG 2) | 12.3 | 22.1 |  | 12.5 |  |  |
| UUUUAACAUGAGGAUCACCCAUGUGAGGAUAUCCUAUUUUUUUUUUUUUUUUUUUUUUGGAGAAGGCACAUUUU [My solution] (puzzle: Exclusion 1) |  |  | 38.3 |  | 23.1 | 7.45 |
| GAUUACUGCAAGCUUAGGGACAUGAGGAUCACCCAUGUUCGUCUUAUUGAUCUAGGUACGCUGACGUACCUAGAUCU [JL-sv1-2.29 Brourd mod] (puzzle: Sensor v3, turn-off variant 1) |  |  | 19.4 |  | 14.7 | 13.8 |
| CUGUUCCGUGUAGGAUAUGCAUAUUCUCAUUAUGCAGAAGGACAUGAGGAUCACCCAUGUAUGUUAUUAUCAUAUGUUACAUGU [Design 5] (Eterna round: R96, puzzle: Exclusion NG 1) |  |  |  | 29.7 |  |  |
| AAGAUGCGGAUAGGAUAUGGAAAUUAAUAAAGACCAGAAGGAUUGGUCACACAACAUGAGGAUCACCCAUGUGUGUGUUGUGAA [AK ExNG1-5] (Eterna round: R96, puzzle: Exclusion NG 1) |  |  |  | 10.6 |  |  |
| AAGAACGGUAAGGAUAUCCAUGUGAAAUAAAGAGGAGAAGGUACCACAUGAGGAUCACCCAUGUGGCUCUCAAA [EX6 B.30] (Eterna round: R97, puzzle: Exclusion 6) | 13.8 | 11.5 |  |  |  |  |
| UUUACAAGCUAUUGAUCCCACAUGAGGAUCACCCAUGUUCCUGGCCGUGAGGCUAGGUAAACAAUUGCUCGUCUUAU [JL TOV1 3.69] (Eterna round: R97, puzzle: Sensor, turn-off variant 1) | 903 | 1370 |  |  |  |  |

| Sequence | apparent KD of MS2 coat protein (input ligand: FMN 200 uM) [nM] | apparent KD of MS2 coat protein (input ligand: none) [nM] | apparent KD of MS2 coat protein [1] [nM] | apparent KD of MS2 coat protein [2] [nM] | apparent KD of MS2 coat protein [3] [nM] | apparent KD of MS2 coat protein [4] [nM] |
| --- | --- | --- | --- | --- | --- | --- |
| UAACACCGAGGAUAUACAUUUCUCAUAAGGUGCAAAACCGCACAUGAGGAUCACCCAUGUAGAAGGCGGCAAAU [Enrabeange] (puzzle: Exclusion 2) |  |  | 10.5 |  | 32 | 14.8 |
| GUGUACAGAGGAUAUAUAUGAGCAUGGAAACAUGCAAGAUCACAUGAGGAUCACCCAUGUAGAAGGCUGUACAC [Ex2: 736] (Eterna round: R96, puzzle: Exclusion 2) | 861 | 112 |  | 99.3 |  |  |
| CUCAGACAUGAGGAUCACCCAUGUGAGGAUAUGAUGCGAUCGUCGAAAGACGAUAGCAUCAGAAGGCACAAAUG [Fiskers Ex 1 - 24] (puzzle: Exclusion 1) |  |  | 71.2 |  |  |  |
| AAGACACAUGAGGAUCACCCAUGUGAGGAUAUUCGAUGCUAAGCGUAAGCUUAGUAUCGGAGAAGGCACAAAGG [Salishxclusion 6 - Jieux - Exclusion 1] (Eterna round: R97, puzzle: Exclusion 1) | 128 | 48.2 |  |  |  |  |
| UCACGGGACUGAGGAUAUACAUGAACCAUGGUUGUAGAAGGCAGAAGGUUGGAUCAUACACUAAACAUGAGGAUCACCCAUGUU [JR_ExcNG1_Sub028] (Eterna round: R96, puzzle: Exclusion NG 1) | 16.4 | 21.8 |  | 15.7 |  |  |
| GAUUAUGCGAGCUUUAGGGACAUGAGGAUCACCCAUGUUCGUCUUAUUGGUCUGGAUACGCUGACAUACCUAAAUCU [JMF 97] (puzzle: Sensor v3, turn-off variant 1) |  |  | 28.4 |  | 18.6 | 20.9 |
| CGACUGGUAGGAUAUACAUGAGGAUCACCCAUGUACCUGACAUGAGAAUAAACCAUCGGUAGAAGGGCUAAGUC [Eternabot (L2) Solution 79] (Eterna round: R97, puzzle: Exclusion 3) | 21.8 | 21.3 |  |  |  |  |
| UGCGGGCUUUUGAGACCUCACAUGAGGAUCACCCAUGUGCUUGUCUUGUGGGUCGGUCGGUCGUUGGCUGGCUGACG [Sensor-V1 #96] (Eterna round: R97, puzzle: Sensor, turn-off variant 1) | 19.2 | 19.3 |  |  |  |  |
| AGUUGGCGAGGAUAUACAUGAGGAUCACCCAUGUGAUAUUAAAGUGAGGAAAUGAAAAGUAGAAGGCGCUGACA [Mod of Mat 24 - Jieux - Exclusion 3] (Eterna round: R97, puzzle: Exclusion 3) | 662 | 47.3 |  |  |  |  |
| UUACAAUGUCACUUACAAGCUUUUUGCUCGUCUUAUAUUACAUGAGGAUCACCCAUGUAGAUCAUGUGGCGUGACCU [JL ViennaUCT Maridi mod 10] (puzzle: Sensor v3, turn-off variant 2) |  |  | 46.7 |  | 145 | 151 |
| GGAUCUACUGAGGAUAUUAUAUCACCCGACUGAUAAGAAGGCAGUACAUGAGGAUCACCCAUGUGGGUAGCCAU [Polaris8] (Eterna round: R97, puzzle: Exclusion 6) | 64.3 | 34.8 |  |  |  |  |
| GUCUCGUGAGGAUAUCAUGAUUGACUUAAUUUAUUUUAGCGUGAGAAGGCACAUGAGGAUCACCCAUGUGAUUC [Ex4 - 3 - 5] (puzzle: Exclusion 4) |  |  | 17.1 |  |  |  |
| GGCAGUCGAGGAUAUACAAUCGUGCUUCGGCACGUAAGAUCACAUGAGGAUCACCCAUGUAGAAGGCGACUGCC [E2/1-A1] (Eterna round: R97, puzzle: Exclusion 2) | 749 | 53.2 |  |  |  |  |
| CUAGAUCUUCGGAUCUAGUACAUGAGGAUCACCCAUGUGACGAGUAGAUCCUCAAACAAGCUUUUUGCUCGUCUUAU [Sensor v3 - Turn-off variant 1 - 20] (puzzle: Sensor v3, turn-off variant 1) |  |  | 9.51 |  | 43.3 | 111 |
| CUUUUGUGAGGAUAUCAGUAGUAAAAAAAUAUAAUUACUACUGAGAAGGCACAUGAGGAUCACCCAUGUUCCUC [salish99_ex4_r3_023] (puzzle: Exclusion 4) |  |  | 40.1 |  |  |  |
| AGUAACUAUCACGAAAGUGAUAGUUACACAAGCAGUGACACAUGAGGAUCACCCAUGUCCUCAUUUGCUCGUCUUAU [Sensor 3 - 29] (puzzle: Sensor v3, turn-off variant 2) |  |  | 637 |  | 614 | 478 |
| UUGUACCGGUGAGGAUAUCGUUGAUAGAACUUUAUGAUAUACAUGAGGAUCACCCAUGUUACUUUCGAGAAGGCAUCGGAUUAU [ExNG2 6th] (Eterna round: R96, puzzle: Exclusion NG 2) | 12.3 | 21.8 |  | 10.3 |  |  |
